# From US20060009452A1, “Therapeutic targeting of PARC/CCL18 and its signaling in pulmonary fibrosis” (priority 2004, published 2006)
# Assays:
# [1] = test system: lung fibroblasts; experiment: Collagen production, metabolic labeling with 14C-proline, PAGE and autoradiography; assay type: cell-based, human
# Description: Collagen Production Assays. Production of collagen was assessed using metabolic labeling with ^14C-proline and Western blotting with anti-collagen type I antibody. For metabolic labeling of collagen, fibroblasts were plated at 2×10^5 cells/well in 6-well plates (Costar, Cambridge, Mass.), in duplicates, incubated overnight in 3 ml/well of high serum medium, and then for 24 h in low-serum medium. After that, the culture medium was replaced with 1 ml/well of fresh low serum medium with or without added test substances and containing ^14C-proline at 1 μCi/ml (Amersham Pharmacia Biotech). After incubation for the desired periods of time, the cell culture supernatants were collected, rapidly frozen in liquid nitrogen and freeze-dried at −70° C. The pellets were dissolved in 100 μl of reducing Laemmli buffer per 1 ml of the cell culture supernatant, and the samples were electrophoretically separated in 7.5% acrylamide gels. Alternatively, samples were concentrated 10-fold by filter centrifugation on 30K Ultrafree-MC filters (Millipore, Bedford, Mass.). Fluorographic images were developed using EN[3H]ANCE autoradiography enhancer (NEN, Boston, Mass.). Gel images were acquired using Storm densitometer (Molecular Dynamics, Sunnyvale, Calif.), and the densities of the bands were analyzed with ImageQuant software (Molecular Dynamics). Dependence of collagen production by fibroblast cultures on the dose of PARC and duration of stimulation were evaluated using one-way ANOVA with post hoc testing.
# The identity of collagen bands was confirmed by sensitivity to pepsin and collagenase (both from Sigma) digestion. For pepsin digestion, 2 μl of 1 Macetic acid were added to 40 μl of concentrated fibroblast culture supernatant, followed by 1 μl of pepsin stock, to achieve final concentration of pepsin as indicated in the text. After 15 min of digestion at room temperature, reaction was stopped with 4 μl of 1 M Tris base and 40 μl of reducing Laemmli buffer. For collagenase digestion, 1 μl of 4 U/ml bacterial collagenase and 1 μl of protease inhibitor cocktail (Sigma) were added to 40 μl of sample and digestion performed at room temperature for 30 min. The bacterial collagenase was highly purified and had minimal clostripain and neutral protease activity, as tested by the manufacturer, according to the product information sheet.
# To test effects of rhPARC on collagen protein production by lung and dermal fibroblast cell lines, fibroblast cultures were incubated for 48 h with or without 30 ng/ml and 300 ng/ml rhPARC in the low-serum cell culture medium containing 14Cproline for metabolic labeling of collagen. Fibroblast culture supernatants contained two 14C-proline containing bands in gel electrophoresis under reducing conditions (FIGS. 13A and 13B). Digestion with chromatographically pure bacterial collagenase in the presence of protease inhibitors eliminated the bands completely (FIG. 13A). To confirm the identity of these bands, we conducted Western blotting experiments in reducing conditions of fibroblast culture supernatants using an anti-collagen type I antibody, that recognizes α1(I) collagen but not other collagen chains. Digestion with pepsin caused expected decrease in the apparent molecular weight of the immunoreactive collagen from ˜175 kD to ˜125 kD (FIG. 13C).
# [2] = test system: mouse fibroblasts; experiment: Collagen Western blot in wild-type and Smad3-/- mouse fibroblasts; assay type: cell-based
# Description: Collagen was quantified by Western blotting and the identity of collagen bands was confirmed by sensitivity to pepsin and collagenase digestion as described elsewhere in Atamas et al. (Am. J. Respir. Cell. Mol., 29:743-749 (2003)). In these assays, pro-collagen appears as a single or double band with a molecular weight of approximately 175 kDa (4,27,28).
# Transient transfection with 1 μg of Sp1 and Smad3 dominant negative mutant constructs abrogated basal and PARC-stimulated upregulation of collagen production, whereas transfection with 0.2 μg of the constructs inhibited the response to PARC stimulation but not basal collagen production (FIG. 19A,B).
# [3] = test system: TGF-β1; experiment: TGF-β1 ELISA of fibroblast supernatants and lysates; assay type: cell-based, human; details: 300 ng/ml rhPARC
# Text: Transforming Growth Factor-β ELISA Assays. ELISA kits for TGF-β1 and TGF-β2 were purchased from R&D Systems. ELISA for TGF-β3 was custom developed using a DuoSet ELISA Development System (R&D Systems) following manufacturer's recommendations. […] Recombinant human TGF-β1, TGF-β2, and TGF-β3 from R&D Systems were used in serial dilutions for calibration of the assays. The minimal detection level in these assays was 10-20 pg/ml of TGF-β. Low serum cell culture medium containing 0.5% dialyzed fetal bovine serum had no detectable TGF-β and was used as a negative control in these assays. Each of LF1-LF4 cultures was tested in duplicates for each time point in at least three independent experiments.
# Transforming Growth Factor-β1 ELISA Assays. ELISA kits for transforming growth factor (TGF)-β1 were purchased from R&D Systems (Minneapolis, Minn.), and fibroblast culture supernatants and whole cell lysates after 3, 6, 12, 24, 48, and 72 h activation with rhPARC were assayed in duplicates for total TGF-β1, according to the manufacturer's instructions. Low-serum cell culture medium containing 0.5% dialyzed fetal bovine serum had no detectable TGF-β1 and was used as a negative control in these assays.
# ELISA kits for TGF-β1, -β2, and -β3 were purchased from R&D Systems and assays performed following manufacturer's recommendations. […] The minimal detection level in these assays was 10-20 pg/ml of TGF-β. […]
molecule,measurement,setting,value
"rhPARC: Recombinant human pulmonary and activation-regulated chemokine (CC chemokine CCL18), purchased from R&D Systems and Cell Sciences (protein) AQVGTNKELCCLVYTSWQIPQKFIVDYSETSPQCPKPGVILLTKRGRQICADPNKKWVQKYISDLKLNA",average increase in the density of collagen bands,"[1]; 48 h, 300 ng/ml rhPARC, responding lung and dermal lines",3.4±0.9 fold
same,increase of fibroblast production of collagen over control,"[1]; 48 h, five out of seven tested lung and dermal fibroblast lines",more than 3 fold
same,"combined density of procollagen bands, fold higher than non-stimulated control","[1]; LF1 cells, 300 ng/ml rhPARC, 48 h",3.4 fold
same,"combined density of procollagen bands, fold higher than non-stimulated control","[1]; LF2 cells, 30 ng/ml rhPARC, 48 h",2.7 fold
same,"combined density of procollagen bands, fold higher than non-stimulated control","[1]; LF2 cells, 300 ng/ml rhPARC, 48 h",4.4 fold
same,response of collagen production in one lung and one dermal fibroblast line,"[1]; up to 72 h, rhPARC up to 1,000 ng/ml",non-responsive
same,collagen production response to PARC stimulation,[2]; Smad3-/- mouse fibroblasts,did not
same,collagen production response to PARC stimulation,[2]; wild-type mouse fibroblasts,responded to PARC stimulation by upregulating collagen production
same,maximal increase in production of TGFβ1 by fibroblasts,"[3]; 3-72 h, lung and dermal fibroblast lines",1.3±0.2 fold
same,total TGF-β1 in culture supernatants after stimulation,[3]; primary lung fibroblast cultures,decreased
